What all share (assay): ELISA, scFv, secondary screening
On the technique in general: ELISA stands for enzyme-linked immunosorbent assay.

Test [1] deals with T1, human IGFBP6 (human, UniProt P24592 28-240, limits assumed).
T1 construct: Bought protein
T1 sequence (looked up): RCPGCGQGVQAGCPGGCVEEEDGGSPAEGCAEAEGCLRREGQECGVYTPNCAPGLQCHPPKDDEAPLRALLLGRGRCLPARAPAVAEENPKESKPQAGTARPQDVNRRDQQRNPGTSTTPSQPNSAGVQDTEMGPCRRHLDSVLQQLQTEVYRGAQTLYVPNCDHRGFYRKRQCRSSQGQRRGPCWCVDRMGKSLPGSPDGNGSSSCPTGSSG
Here is the method: (§1) At the end of the discovery process, each selection output was screened for antigen-specific antibodies and the binding characteristics of monoclonal antibody clones was analysed. For this purpose, 3072 single colonies were used for scFv antibody production. […] 192 of those ELISA positive clones were selected for a secondary screening. For that purpose, a second batch of scFv were produced and tested on a broader panel of antigens: Streptavidin+biotinylated human IGFBP5, Streptavidin+biotinylated murine IGFBP5, Streptavidin, BSA, Human IGFBP1, Human IGFBP2, Human IGFBP3, Human IGFBP4, Human IGFBP5 and Human IGFBP6. […] Binding to human IGFBP1, human IGFBP2, human IGFBP3, human IGFBP4 and human IGFBP6 was not detected. […] The scFv DNA sequence was amplified by PCR and cloned into YUMAB's mammalian scFv-Fc expression vector, resulting in a genetic fusion of the scFv with a human IgG4 Fc. Bacterial clones with a correctly cloned scFv gene were used for isolation of transfection grade DNA. The DNA was used for the transient transfection of HEK cells which produced and secreted the antibody into the culture medium. The antibodies were purified by affinity chromatography (Protein A) and re-buffered in PBS. The protein concentration was determined by UV/VIS spectrometry and purity was checked by Coomassie staining. 13 of the 15 antibodies could be successfully produced in the scFv-Fc format.

The target in test [2] is T2, human IGFBP1 (human, UniProt P08833 26-259).
T2 construct: Bought protein
T2 sequence (looked up): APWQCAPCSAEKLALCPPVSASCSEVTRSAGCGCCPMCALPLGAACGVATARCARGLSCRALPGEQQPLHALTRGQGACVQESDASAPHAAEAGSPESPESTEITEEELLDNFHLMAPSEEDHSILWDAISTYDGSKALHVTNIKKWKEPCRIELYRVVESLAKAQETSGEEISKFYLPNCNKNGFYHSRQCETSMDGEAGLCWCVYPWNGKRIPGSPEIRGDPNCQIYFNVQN
Here is the method:
as §1

The target in test [3] is T3, human IGFBP5 (human, UniProt P24593 21-272).
T3 construct: Bought protein; in BLI it was in solution; also called hIGFBP-5
T3 sequence (P24593 21-272 limits assumed): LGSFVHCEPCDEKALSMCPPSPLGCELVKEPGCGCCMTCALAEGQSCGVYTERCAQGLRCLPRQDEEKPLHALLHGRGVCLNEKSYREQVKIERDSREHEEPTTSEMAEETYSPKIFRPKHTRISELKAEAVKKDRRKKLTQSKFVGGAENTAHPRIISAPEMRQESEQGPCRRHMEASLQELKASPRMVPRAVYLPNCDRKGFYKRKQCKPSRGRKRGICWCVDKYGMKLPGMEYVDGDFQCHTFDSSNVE
On the procedure: as §1

In test [4] the target is T4, human IGFBP2 (human, UniProt P18065 37-325, limits assumed).
T4 construct: Bought protein
T4 sequence (looked up): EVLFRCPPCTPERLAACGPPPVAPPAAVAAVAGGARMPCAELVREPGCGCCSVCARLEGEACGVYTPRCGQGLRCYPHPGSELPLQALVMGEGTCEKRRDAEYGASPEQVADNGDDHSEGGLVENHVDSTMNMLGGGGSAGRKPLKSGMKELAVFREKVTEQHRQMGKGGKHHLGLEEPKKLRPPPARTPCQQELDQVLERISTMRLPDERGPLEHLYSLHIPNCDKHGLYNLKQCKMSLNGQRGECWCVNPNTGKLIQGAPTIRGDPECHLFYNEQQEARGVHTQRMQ
On the procedure: as §1

For test [5], the target named is T5, human IGFBP4 (human, UniProt P22692 22-258).
T5 construct: Bought protein
T5 sequence (looked up): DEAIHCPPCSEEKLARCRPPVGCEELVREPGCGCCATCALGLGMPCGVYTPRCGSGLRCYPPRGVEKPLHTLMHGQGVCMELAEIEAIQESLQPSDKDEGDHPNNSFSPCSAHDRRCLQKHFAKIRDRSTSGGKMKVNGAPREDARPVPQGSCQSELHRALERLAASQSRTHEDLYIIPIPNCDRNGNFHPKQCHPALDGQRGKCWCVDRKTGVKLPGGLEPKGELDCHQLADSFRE
Here is the method: as §1

Test [6] concerns the target T6, human IGFBP3 (human, UniProt P17936 28-291).
T6 construct: Bought protein
Here is the method: as §1

The target of test [7] is T7, mouse IGFBP5 (mouse, UniProt Q07079 20-271).
T7 construct: Bought protein; in solution in BLI; also called mIGFBP-5; murine IGFBP5
T7 sequence (Q07079 20-271 limits assumed): as the sequence (P24593 21-272 limits assumed) above, with R87G, V90T, I116V, I157V, S159P, L183F, T245A counted along it
On the procedure: as §1

T6 sequence (P17936 28-291 limits assumed): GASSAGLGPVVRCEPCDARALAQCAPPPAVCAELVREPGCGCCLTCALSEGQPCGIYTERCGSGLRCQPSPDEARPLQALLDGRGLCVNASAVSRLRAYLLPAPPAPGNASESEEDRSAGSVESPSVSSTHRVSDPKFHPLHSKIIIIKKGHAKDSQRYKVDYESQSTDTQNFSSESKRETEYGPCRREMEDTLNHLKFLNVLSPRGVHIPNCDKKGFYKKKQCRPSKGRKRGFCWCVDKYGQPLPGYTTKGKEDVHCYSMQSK

B1: C02 scFv (scFv, V domains shown)
VH: QVQLVQSGAEVKKPGASVKVSCKASGYTFTSYGISWVRQAPGQGLEWMGWISAYNGNTNYAQKLQGRVTMTTDTSTSTAYMELRSLRSDDTAVYYCARGRGVIDYWGQGTLVTVSS
VL: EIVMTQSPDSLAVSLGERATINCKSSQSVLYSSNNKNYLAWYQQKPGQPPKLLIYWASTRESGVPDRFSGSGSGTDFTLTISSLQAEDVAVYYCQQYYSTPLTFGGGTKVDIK
notes: scFv as screened by ELISA
Turning to B1, the binding result was “no binding” in test [1]; “no binding” in test [2]; “binds” in test [3]; “no binding” in test [4]; “no binding” in test [5]; “no binding” in test [6]. In addition, in test [7], the binding result is “binds”.

B2: F05 scFv (scFv, V domains shown)
VH: QVQLVQSGAEVKKPGASVKVSCKASGYTFTSYGISWVRQAPGQGLEWMGWISAYNGNTNYAQKLQGRVTMTTDTSTSTAYMELRSLRSDDTAVYYCARGRGSFDPWGQGTLVTVSS
VL: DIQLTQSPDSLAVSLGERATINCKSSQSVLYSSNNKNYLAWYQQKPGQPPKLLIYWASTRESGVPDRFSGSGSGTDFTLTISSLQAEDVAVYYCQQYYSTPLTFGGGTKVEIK
notes: scFv as screened by ELISA
Consider B2, for which the binding result in test [1] is listed as “no binding”; in test [2] it was “no binding”; in test [3] it was “binds”; in test [4], “no binding”; in test [5] it was “no binding”; in test [6], “no binding”. The binding result in test [7] is reported as “binds”.

B3: C12 scFv (scFv, V domains shown)
VH: QVQLVQSGAEVKKPGSSVKVSCKASGGTFSSYAISWVRQAPGQGLEWMGGIIPIFGTANYAQKFQGRVTITADESTSTAYMELSSLRSEDTAVYYCATLGRELSFDYWGQGTLVTVSS
VL: DIVMTQSPSSLSASVGDRVTITCRASQSISSYLNWYQQKPGKAPKLLIYAASSLQSGVPSRFSGSGSGTDFTLTISSLQPEDFATYYCQQSYSESWTFGQGTTVDIK
notes: scFv as screened by ELISA
As for B3, the binding result in test [1] was “no binding”; in test [2], “no binding”; in test [3] it was “binds”; in test [4], “no binding”; in test [5] it was “no binding”; in test [6], “no binding”. Also, the binding result in test [7] is reported as “binds”.

B4: E02 scFv (scFv, V domains shown)
VH: QMQLVQSGAEVKKPGSSVKVSCKASGGTFSSYAISWVRQAPGQGLEWMGGIIPIFGTANYAQKFQGRVTITADESTSTAYMELSSLRSEDTAVYYCATMSVAGPSISFDYWGQGTLVTVSS
VL: DIQMTQSPSSLSASVGDRVAIPCRASQSISSYLNWYQQKPGKAPKLLIYAASSLQRGVPSRFSGSGSGTDFTLTISSLQPEDFATYYCQETYSNLWTFGQGTKVEIK
notes: scFv as screened by ELISA
As to B4, the binding result is on record as “no binding” in test [1]; “no binding” in test [2]; “binds” in test [3]; “no binding” in test [4]; “no binding” in test [5]; “no binding” in test [6]. Besides, the binding result in test [7] is listed as “binds”.

B5: E03 scFv (scFv, V domains shown)
VH: QVQLVQSGAEVKKPGSSVKVSCKASGGTFSSYAISWVRQAPGQGLEWMGGITPIFGTANYAQKFQGRVTITADESTSTAYMELSSLRSEDTAVYYCARAGILTGYYFDYWGQGTLVTVSS
VL: NFMLTQPHSVSESPGKTVTISCTRSSGSIASNYVQWYQQRPGSSPTTVIYEDNQRPSGVPDRFSGSIDSSSNSASLTISGLKTEDEADYYCQSYDSSNRPWVFGGGTKLTVL
notes: scFv as screened by ELISA
Take B5: the binding result in test [1] is “no binding”; in test [2] it was “no binding”; in test [3], “binds”; in test [4], “no binding”; in test [5], “no binding”; in test [6], “no binding”. The binding result in test [7] is on record as “binds”.

B6: D12 scFv (scFv, V domains shown)
VH: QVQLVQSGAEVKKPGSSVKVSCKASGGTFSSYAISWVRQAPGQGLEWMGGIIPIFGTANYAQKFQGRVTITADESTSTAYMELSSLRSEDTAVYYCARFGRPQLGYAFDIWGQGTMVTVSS
VL: ETTLTQSPGTLSVSPGDRATLSCRASQSLSADYLAWYQQKPGQAPRLLIYGASTRATGIPARFSGSGSGTEFTLTVSSLQSEDFAVYYCQQNDNWPYTFGQGTKLEIK
notes: scFv as screened by ELISA
Regarding B6, the binding result in test [1] was “no binding”; in test [2] it was “no binding”; in test [3], “binds”; in test [4], “no binding”; in test [5], “no binding”; in test [6], “no binding”. The binding result in test [7] is listed as “binds”.

B7: C11 scFv (scFv, V domains shown)
VH: EVQLVESGGGVVQPGRSLRLSCAASGFTFSSYGMHWVRQAPGKGLEWVAVISYDGSNKYYADSVKGRFTISRDNSKNTLYLQMNSLRAEDTAVYYCARGDYSDTSGTDFFQHWGQGTQVTVSS
VL: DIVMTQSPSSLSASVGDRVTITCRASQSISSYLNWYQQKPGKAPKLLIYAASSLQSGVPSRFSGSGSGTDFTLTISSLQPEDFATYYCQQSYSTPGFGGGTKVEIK
notes: scFv as screened by ELISA
For the molecule B7, the binding result in test [1] is reported as “no binding”; in test [2], “no binding”; in test [3], “binds”; in test [4], “no binding”; in test [5], “no binding”; in test [6], “no binding”. Besides, the binding result in test [7] is recorded as “binds”.

B8: B09 scFv (scFv, V domains shown)
VH: QVQLVQSGAEVKKPGASVKVSCKASGYTFTSYGISWVRQAPGQGLEWMGWISAYNGNTNYAQKLQGRVTMTTDTSTSTAYMELRSLRSDDTAVYYCARDLAVGTHGDYWGQGTLVTVSS
VL: QSALTQPASVSGSPGQSITISCTGTSSDVGGYNYVSWYQQHPGKAPKLMIYEVSNRPSGVSNRFSGSKSGNTASLTISGLQAEDEADYYCSSYTSSSTLEVVFGGGTKLTVL
notes: scFv as screened by ELISA
With B8, the binding result in test [1], in test [2], in test [4], in test [5] and in test [6] was “no binding” each time.

B9: D10 scFv (scFv, V domains shown)
VH: QVQLVQSGAEVKKPGASVKVSCKASGYTFTSYGISWVRQAPGQGLEWMGWISAYNGNTNYAQKLQGRVTMTTDTSTSTAYMELRSLRSDDTAVYYCARDRYLGWFDPWGQGTLVTVSS
VL: QSALTQPASVSGSPGQSITISCTGTSSDVGGYNYVSWYQQHPGKAPKLMIYEVSNRPSGVSNRFSGSKSGNTASLTISGLQAEDEADYYCSSYTSSSTPYVFGTGTKLTVL
notes: scFv as screened by ELISA
As for B9, the binding result in test [1] was “no binding”; in test [2], “no binding”; in test [3] it was “binds”; in test [4] it was “no binding”; in test [5], “no binding”; in test [6] it was “no binding”. In test [7], the binding result is “binds”.

B10: B11 scFv (scFv, V domains shown)
VH: QVQLVQSGAEVKKPGSSVKVSCKASGGTFSSYAISWVRQAPGQGLEWMGGIIPIFGTANYAQKFQGRVTITADKSTSTAYMELSSLRSEDTAVYYCARNVRLPGWFDPWGQGTLVTVSS
VL: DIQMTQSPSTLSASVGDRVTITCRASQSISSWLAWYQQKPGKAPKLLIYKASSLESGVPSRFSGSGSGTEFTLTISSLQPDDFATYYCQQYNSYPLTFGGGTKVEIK
For the molecule B10, the binding result in test [1] is “no binding”; in test [2], “no binding”; in test [3], “binds”; in test [4] it was “no binding”; in test [5], “no binding”; in test [6] it was “no binding”. In addition, the binding result in test [7] is reported as “binds”.

For the origin of these results see patent US12715909 (ENTHERA S R L, dated 2026).
